# Assay results from the RNAGym collection of RNA variant scans (doi:10.1073/pnas.2313332121).
# B1: TPR t1 (parent)
# chain: GACCAAUCUGCCCUCAGAGCUCGAGAACAUCUUCGGAUGCAGAGGAGGCAGGCUUCGGUGGCGCGAUAGCGCCAACGUCCUCAACCUCCAAUGCAUCCCACCACAUGAUGAUGCCUGAAGAGCCUUGGUUUUUUG
# Variants of: B1
# Experiment: polymerase ribozyme fitness, log enrichment relative to wild type (log ratio); higher = more active; in vitro selection for triplet polymerase activity
# Outline: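 The heterodimeric triplet polymerase ribozyme's subunits were each mutagenized into PCR-built libraries and transcribed. Every library was selected once, in triplicate, by annealing with a biotinylated primer, the partner subunit and triplets, incubating frozen at −7 °C, gel-excising extended constructs, capturing on streptavidin beads and running RT-PCR. Input and output libraries were Illumina-sequenced, with genotypes kept only at ≥10 input reads and ≥1 read per output. Fitness, from inverse-variance-weighted replicate averages, is the base-2 logarithm of genotype enrichment over wild-type enrichment.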
row,Variant,polymerase ribozyme fitness (log ratio)
1,GACCAAUCUGCCCUCAGAGCUCGAGAACAUCUUCGGAUGCAGAGGAGGCAGGCUUCGGUGGCGCGAUAGCGCCAACGUCCUCAACCUCCAAUGCAUCCCACCACAUGAUGAUGCAUGAAGAGCCUUCGUUUUUUG [C115A G127C],-1.67
2,GACCAAUCUGCCCUCAGAGCUCGAGAACAUCUUCGGAUGCAGAGGAGGCAGGCUUCGGUGGCGCGAUAGCGCCAACGUCCUCAACCUCCAAUGCAUCCCACCACAUGAUGAUGCAUGAAGAGCCUUUGUUUUUUG [C115A G127U],-2.8
3,GACCAAUCUGCCCUCAGAGCUCGAGAACAUCUUCGGAUGCAGAGGAGGCAGGCUUCGGUGGCGCGAUAGCGCCAACGUCCUCAACCUCCAAUGCAUCCCACCACAUGAUGAUGCAUGAAGAGCCUUAGUUUUUUG [C115A G127A],-0.375
4,GACCAAUCUGCCCUCAGAGCUCGAGAACAUCUUCGGAUGCAGAGGAGGCAGGCUUCGGUGGCGCGAUAGCGCCAACGUCCUCAACCUCCAAUGCAUCCCACCACAUGAUGAUGCAUGAUGAGCCUUGGUUUUUUG [C115A A119U],-1.26
5,GACCAAUCUGCCCUCAGAGCUCGAGAACAUCUUCGGAUGCAGAGGAGGCAGGCUUCGGUGGCGCGAUAGCGCCAACGUCCUCAACCUCCAAUGCAUCCCACCACAUGAUGAUGUCUGAAGAACCUUGGUUUUUUG [C114U G122A],-2.83
6,GACCAAUCUGCCCUCAGAGCUCGAGAACAUCUUCGGAUGCAGAGGAGGCAGGCUUCGGUGGCGCGAUAGCGCCAACGUCCUCAACCUCCAAUGCAUCCCACCACAUGAUGAUGCAUGAAGAGCCUUGAUCUUUUG [C115A G128A U130C],-0.444
7,GACCAAUCUGCCCUCAGAGCUCGAGAACAUCUUCGGAUGCAGAGGAGGCAGGCUUCGGUGGCGCGAUAGCGCCAACGUCCUCAACCUCCAAUGCAUCCCACCACAUGAUGAUGCGUGAAGAGCCAUGGUUUUUUG [C115G U125A],-1.66
8,GACCAAUCUGCCCUCAGAGCUCGAGAACAUCUUCGGAUGCAGAGGAGGCAGGCUUCGGUGGCGCGAUAGCGCCAACGUCCUCAACCUCCAAUGCAUCCCACCACAUGAUGAUGCGUGAAGAGCCUUGGUUUUUUG [C115G],-1.59
9,GACCAAUCUGCCCUCAGAGCUCGAGAACAUCUUCGGAUGCAGAGGAGGCAGGCUUCGGUGGCGCGAUAGCGCCAACGUCCUCAACCUCCAAUGCAUCCCACCACAUGAUGAUGCAUGAAGAGCCUUGGUUUUUUG [C115A],-0.202
10,GACCAAUCUGCCCUCAGAGCUCGAGAACAUCUUCGGAUGCAGAGGAGGCAGGCUUCGGUGGCGCGAUAGCGCCAACGUCCUCAACCUCCAAUGCAUCCCACCACAUGAUGAUGCUUGAAGAGCCUUGGUUUUUUG [C115U],-0.935
11,GACCAAUCUGCCCUCAGAGCUCGAGAACAUCUUCGGAUGCAGAGGAGGCAGGCUUCGGUGGCGCGAUAGCGCCAACGUCCUCAACCUCCAAUGCAUCCCACCACAUGAUGAUGUCUGAAGAGCAUUGGUUUUUUG [C114U C124A],-1.04
12,GACCAAUCUGCCCUCAGAGCUCGAGAACAUCUUCGGAUGCAGAGGAGGCAGGCUUCGGUGGCGCGAUAGCGCCAACGUCCUCAACCUCCAAUGCAUCCCACCACAUGAUGAUGCUUGAAGAGCCUUGGAUUUUUG [C115U U129A],-3.34
13,GACCAAUCUGCCCUCAGAGCUCGAGAACAUCUUCGGAUGCAGAGGAGGCAGGCUUCGGUGGCGCGAUAGCGCCAACGUCCUCAACCUCCAAUGCAUCCCACCACAUGAUGAUGCUUGAACAGCCUUGGUUUUUUG [C115U G120C],-0.978
14,GACCAAUCUGCCCUCAGAGCUCGAGAACAUCUUCGGAUGCAGAGGAGGCAGGCUUCGGUGGCGCGAUAGCGCCAACGUCCUCAACCUCCAAUGCAUCCCACCACAUGAUGAUGCCAGAAUAGCCUUGGUUUUUUG [U116A G120U],-1.5
15,GACCAAUCUGCCCUCAGAGCUCGAGAACAUCUUCGGAUGCAGAGGAGGCAGGCUUCGGUGGCGCGAUAGCGCCAACGUCCUCAACCUCCAAUGCAUCCCACCACAUGAUGAUGUCUGAAGAGCCUUGGCUUUUUG [C114U U129C],-3.79
16,GACCAAUCUGCCCUCAGAGCUCGAGAACAUCUUCGGAUGCAGAGGAGGCAGGCUUCGGUGGCGCGAUAGCGCCAACGUCCUCAACCUCCAAUGCAUCCCACCACAUGAUGAUGCUUGAAGAGCCUUCGUUUUUUG [C115U G127C],-2.76
17,GACCAAUCUGCCCUCAGAGCUCGAGAACAUCUUCGGAUGCAGAGGAGGCAGGCUUCGGUGGCGCGAUAGCGCCAACGUCCUCAACCUCCAAUGCAUCCCACCACAUGAUGAUGCCAGAAGUGCCUUGGUUUUUUG [U116A A121U],-0.72
18,GACCAAUCUGCCCUCAGAGCUCGAGAACAUCUUCGGAUGCAGAGGAGGCAGGCUUCGGUGGCGCGAUAGCGCCAACGUCCUCAACCUCCAAUGCAUCCCACCACAUGAUGAUGCCAGAAGAGCCUUGGAUUUUUG [U116A U129A],-4.24
19,GACCAAUCUGCCCUCAGAGCUCGAGAACAUCUUCGGAUGCAGAGGAGGCAGGCUUCGGUGGCGCGAUAGCGCCAACGUCCUCAACCUCCAAUGCAUCCCACCACAUGAUGAUGUCUGAAGAGCCUUAGUUUUUUG [C114U G127A],-3.37
20,GACCAAUCUGCCCUCAGAGCUCGAGAACAUCUUCGGAUGCAGAGGAGGCAGGCUUCGGUGGCGCGAUAGCGCCAACGUCCUCAACCUCCAAUGCAUCCCACCACAUGAUGAUGCUUGUAGAGCCUUGGUUUUUUG [C115U A118U],-1.41
21,GACCAAUCUGCCCUCAGAGCUCGAGAACAUCUUCGGAUGCAGAGGAGGCAGGCUUCGGUGGCGCGAUAGCGCCAACGUCCUCAACCUCCAAUGCAUCCCACCACAUGAUGAUGCCAGAAGAGCCUUGGUUUUUUG [U116A],-2.96
